# Reference: the supplement of paper PMC9732359
# ± gives the uncertainty stated by the source.
# Assay: protein stability index of a GFP-peptide fusion (yeast GPS) (PSI 1-4); higher = more stable; sorted into four equal gates, so the index is relative within each strain
# In short: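 Tiled 17-residue peptides from yeast proteins were fused downstream of GFP on a plasmid that also expresses Cherry, and the pooled library was carried in yeast. Mid-log cultures grown in leucine-free medium were sorted into four equal gates by GFP/Cherry fluorescence ratio. Plasmids from each gate were PCR-amplified and Illumina-sequenced, and reads were assigned to strains by barcodes. Each peptide's protein stability index is the sum, over gates, of the gate's read frequency multiplied by its gate number.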
Sequence,protein stability index (pdr5∆),protein stability index (san1∆),protein stability index (ubr1∆),protein stability index (doa10∆)
SLSVVAGKWSSKYLIKQ [ECM29],2.19 ± 0.18,2.15 ± 0.17,2.39 ± 0.095,
LNTFHFAGVASKKVTSG [RPO21],3.13 ± 0.078,2.9 ± 0.065,2.9 ± 0.077,2.67 ± 0.093
ARYNWICDPVHKHREAR [RPL15A],2.81 ± 0.13,2.98 ± 0.12,3.22 ± 0.096,3.51 ± 0.12
GTPLFTFGKKADVTSNI [YOR098C/NUP1],1.92 ± 0.046,1.51 ± 0.11,2.18 ± 0.036,1.82 ± 0.05
LPTRYTLDVEAFKSVVS [RPL27A],1.55 ± 0.039,1.62 ± 0.066,1.34 ± 0.031,1.33 ± 0.031
PPPPGFEEDSDLALPPP [PRP8],3.36 ± 0.07,3.19 ± 0.079,3.35 ± 0.057,3.22 ± 0.078
AQQKLKQNPGLMQNMMN [SRP54],2.42 ± 0.059,2.79 ± 0.044,2.54 ± 0.033,2.74 ± 0.056
IKKFAKLHMGTEDVRLA [RPL31B],3.21 ± 0.22,2.71 ± 0.15,2.73 ± 0.14,3.21 ± 0.21
LPKIIQLQGPQWMNEMV [SOH1],3.29 ± 0.064,3.14 ± 0.066,3.06 ± 0.07,3.15 ± 0.088
DGRSFDQFRDVEITFGK [RRP45],3.3 ± 0.058,3.54 ± 0.077,3.21 ± 0.057,3.27 ± 0.092
TGKIVDVVGTLSRNGKP [FAS1],3.6 ± 0.13,3.48 ± 0.094,3.44 ± 0.071,3.33 ± 0.15
RAGVCEYNEDSRLCTPI [RPN13],1.86 ± 0.078,1.41 ± 0.2,2.84 ± 0.072,2.29 ± 0.12
LVSMRYPEDKKTQQNEK [RPN3],,3.24 ± 0.039,3.12 ± 0.12,
IDKLSDVVMKATEPQMV [PRP8],2.71 ± 0.064,2.42 ± 0.065,2.28 ± 0.055,2.38 ± 0.063
FRISLGLPVGAIMNCAD [RPL23A],1.9 ± 0.044,1.57 ± 0.057,1.7 ± 0.035,1.95 ± 0.045
LVDILPPDSDSSISVMG [RPT3],2.27 ± 0.063,2.24 ± 0.065,2.72 ± 0.055,2.23 ± 0.068
PRKLVLSSGENRYAFSQ [SMC4],1.56 ± 0.058,1.72 ± 0.086,1.59 ± 0.054,1.39 ± 0.08
FINNVLSNPSNQNICTS [GRR1],2.31 ± 0.033,2.53 ± 0.054,2.47 ± 0.037,2.42 ± 0.074
LKLENLHVVSKSSIEKD [SIN4],2.74 ± 0.11,3.14 ± 0.1,3.12 ± 0.068,3.13 ± 0.094
ANNNMNDELVELLANKC [GRR1],2.92 ± 0.044,2.78 ± 0.059,2.99 ± 0.046,2.79 ± 0.061
LENMPHPWEQAKEVKVL [PRP8],2.9 ± 0.17,3.09 ± 0.1,2.94 ± 0.093,2.7 ± 0.23
FSSLAISEINFLHESSF [CSI1],2.56 ± 0.035,2.26 ± 0.047,2.53 ± 0.039,2.21 ± 0.038
TILCTPTGGKAKLSEGT [RPS27A],2.85 ± 0.1,3.12 ± 0.072,2.74 ± 0.056,2.83 ± 0.097
MGPLYQNFAEFMTKLLE [IRR1],1.82 ± 0.11,3.03 ± 0.13,2.04 ± 0.15,2.27 ± 0.11
CNDEDKDLETLYNKIWT [ECM29],3.06 ± 0.065,2.44 ± 0.074,2.88 ± 0.037,3.04 ± 0.081
NYKQLTLVGGGAKITPE [RRP43],1.94 ± 0.11,2.22 ± 0.18,2.01 ± 0.15,1.86 ± 0.11

Sequence,protein stability index (pdr5∆),protein stability index (san1∆),protein stability index (ubr1∆),protein stability index (doa10∆)
HCDKCSVVLTLQAFGES [RPB3],3.19 ± 0.14,2.47 ± 0.19,2.6 ± 0.17,3.1 ± 0.15
AQQDSTNVRLYSLLLAS [ECM29],2.04 ± 0.052,2.39 ± 0.047,2.43 ± 0.04,2.27 ± 0.068
MVRLKSRYILFEIIFPP [POP5],1.42 ± 0.054,1.52 ± 0.084,1.5 ± 0.047,1.47 ± 0.067
SPIKNGSCTRQLAGKSG [YOR098C/NUP1],3.02 ± 0.056,2.35 ± 0.07,3.08 ± 0.069,3.32 ± 0.084
ISQKLHDSILHSRILPK [RRP43],2.58 ± 0.033,2.62 ± 0.037,2.8 ± 0.038,2.57 ± 0.046
LEAVNSMIEKGGDWERR [RPN7],3.1 ± 0.093,2.8 ± 0.08,2.87 ± 0.06,3.02 ± 0.1
VASADYESQTFSSKNEW [PRP8],3.4 ± 0.19,2.85 ± 0.18,2.89 ± 0.13,2.83 ± 0.098
TSPLYMDPGAPLPVETP [SSN2],2.82 ± 0.12,2.75 ± 0.17,2.81 ± 0.11,3.09 ± 0.12
ISQLYSDAVMAEHSQNK [YJL041W/NSP1],2.83 ± 0.081,2.75 ± 0.096,2.81 ± 0.088,2.99 ± 0.079
QQQQQQQQQQQQQQQQH [GAL11],2.8 ± 0.029,2.698 ± 0.025,2.878 ± 0.024,2.68 ± 0.033
QKYWESMRIQILRRQAI [GAL11],2.25 ± 0.087,1.65 ± 0.16,2.1 ± 0.058,1.34 ± 0.091
DGMYSESKLSLETLFNR [FAS2],3.25 ± 0.09,3.32 ± 0.046,3.33 ± 0.048,3.39 ± 0.075
ARIIAAIPNPEDVVAIS [RPS0A],2.14 ± 0.083,2.34 ± 0.091,2.31 ± 0.083,1.8 ± 0.071
TASSLAHDYNNDQDMFT [YML103C/NUP188],3.04 ± 0.063,3.17 ± 0.046,3.12 ± 0.055,3.19 ± 0.067
FKVRTNLNDKFGIYILT [MED1],1.87 ± 0.046,1.98 ± 0.098,1.92 ± 0.042,1.76 ± 0.05
IPYGPDFDNIEFKKIPR [SEC65],3.1 ± 0.11,2.87 ± 0.075,3.17 ± 0.084,3.21 ± 0.093
NTSVLMKLKLMIVYYKD [YCS4],1.56 ± 0.12,1.32 ± 0.21,1.29 ± 0.11,1.56 ± 0.15
YTAVDTAKLQMRRFILG [RPN14],1.47 ± 0.093,1.55 ± 0.3,1.25 ± 0.18,1.35 ± 0.27
NSDIANLRTQVTQQKRS [SMC1],3.1 ± 0.055,2.97 ± 0.062,3.08 ± 0.066,3.05 ± 0.074
RLASEPGIISITSLQDS [YMR129W/POM152],2.34 ± 0.077,2.96 ± 0.083,1.82 ± 0.051,2.94 ± 0.1
MENIKKSIDSKTPEEVE [ISW2],3.09 ± 0.23,3.13 ± 0.089,3.23 ± 0.11,2.92 ± 0.17
QQTEHETEIKDLTQLLE [SMC4],3.26 ± 0.048,3.31 ± 0.045,3.34 ± 0.046,3.44 ± 0.083
PHTVIRRKTTKQNSSSD [YDL088C/ASM4],3.05 ± 0.079,3.01 ± 0.068,2.9 ± 0.043,3.14 ± 0.089
LATDVTTLNEMFRYKTN [PUP3],2.72 ± 0.11,1.91 ± 0.077,2.53 ± 0.1,1.85 ± 0.14
SHTSLVKIGKFIPHGLK [SRB8],1.73 ± 0.045,1.97 ± 0.084,1.55 ± 0.054,1.71 ± 0.053
VYAFKAKNKSTRINGLN [REC8],1.65 ± 0.094,1.77 ± 0.19,1.59 ± 0.12,1.53 ± 0.1

Sequence,protein stability index (pdr5∆),protein stability index (san1∆),protein stability index (ubr1∆),protein stability index (doa10∆)
NRKVLQALEKIGIVEIS [RPS19A],2.27 ± 0.1,2.24 ± 0.074,2.31 ± 0.07,2.34 ± 0.1
GYDINYISKIGEKIDSN [SWI1],2.98 ± 0.085,3.23 ± 0.084,2.91 ± 0.11,3.2 ± 0.11
NYLRQQCNYSSLVFNRK [PRE5],2.94 ± 0.11,,2.75 ± 0.088,2.71 ± 0.17
YPREEEEDYNEFNSIDR [PRP8],3.24 ± 0.1,3.1 ± 0.068,3.27 ± 0.08,3.32 ± 0.09
VNQTGSTKKDTVQLTFL [YCG1],3 ± 0.16,,2.9 ± 0.16,3.05 ± 0.29
NNKKVVGTAIDSILNYA [ECM29],2.75 ± 0.12,,3.06 ± 0.083,2.4 ± 0.21
LQPFYSQPTAAGGPDMT [DSN1],1.51 ± 0.047,1.88 ± 0.077,1.62 ± 0.039,1.54 ± 0.049
LGINLVTADTVILFDSD [ISW2],2.65 ± 0.086,2.51 ± 0.16,2.94 ± 0.06,2.53 ± 0.1
PASNILRRTTQRVFDET [YDL116W/NUP84],2.66 ± 0.061,2.77 ± 0.13,2.62 ± 0.1,2.66 ± 0.13
SQLQEQFNKILPEPTEG [FAS1],3.17 ± 0.12,2.64 ± 0.076,2.71 ± 0.097,2.82 ± 0.1
QRSRRKFSERRKALPKE [DSN1],,3.52 ± 0.099,,3.47 ± 0.22
IALSRRFLLNGRVKALE [YDL116W/NUP84],1.3 ± 0.058,1.19 ± 0.13,1.24 ± 0.035,1.25 ± 0.062
IAKLVAVLNVSPVYDVD [NUT1],2.05 ± 0.046,1.7 ± 0.084,1.75 ± 0.043,1.84 ± 0.056
NPHQKDQLIISSSANKL [YML103C/NUP188],2.71 ± 0.094,2.29 ± 0.15,2.78 ± 0.069,2.45 ± 0.15
SIAEEIPIAIVLKACGI [RET1],1.49 ± 0.049,1.31 ± 0.089,1.66 ± 0.049,1.61 ± 0.056
NDNEDDDEEYDYNDVEV [BRR2],3.22 ± 0.079,3.34 ± 0.06,3.4 ± 0.052,3.28 ± 0.077
KHHQLFYMLNAGIRPKF [RPN1],2.04 ± 0.085,1.7 ± 0.082,1.98 ± 0.1,2.23 ± 0.17
VSSTIPRETIPFLHLRK [FAS2],2.35 ± 0.13,2.79 ± 0.16,2.6 ± 0.15,2.93 ± 0.27
VKEYQLRDRNFSATGNF [RPL11A],3.27 ± 0.1,2.85 ± 0.28,3.22 ± 0.089,3.29 ± 0.097
DDLIHFTLKQWNRLTIS [COR1],1.34 ± 0.041,1.27 ± 0.066,1.33 ± 0.043,1.3 ± 0.052
KCSATNRIIKADDHASV [RPS21A],2.96 ± 0.053,3.13 ± 0.049,3.11 ± 0.039,2.92 ± 0.053
VEMAWIMGFISYHNGNL [FAS2],3.2 ± 0.1,3.29 ± 0.063,3.06 ± 0.12,2.67 ± 0.14
TFPPEVLARISPELSLQ [RRP43],2.87 ± 0.11,2.53 ± 0.081,2.67 ± 0.071,2.32 ± 0.073
QHYKNNSISSQPASYHS [SSN2],3.03 ± 0.067,3.05 ± 0.065,2.78 ± 0.057,2.56 ± 0.058
YYYYHPMNAPTPAMIPY [DSN1],2.39 ± 0.05,2.49 ± 0.066,2.46 ± 0.039,2.14 ± 0.047
